Changes are numbered by the printed parent chain. Names may count otherwise. “And” between values parts separate entries of the source, which are not always exact repeats. Identical values can stand only once. Like-named read-outs stand apart in the source and are kept apart here.
How the values were obtained:
[1] = molecular target: T1, linear diubiquitin (Boston Biochem) (human, UniProt P0CG48 1-152); assay: western blot, 1 ug/mL IgG, LI-COR Odyssey quantification; Ub2 bands seen at 333 (faint) and 1000 ng
T1 construct: Bought product
Description: (§1) Gels were transferred at 30 V constant for 1 hour by wet transfer in 10% methanol and 1× NuPAGE transfer buffer (Invitrogen) to 0.2 μm nitrocellulose (Invitrogen). Non-specific binding sites on the membranes were blocked by incubation in 5% milk in PBST for 1 hour at 25° C. with shaking. […] The membranes were washed three times in PBST with shaking. The IgGs were detected by incubating the membrane in a 1:10,000 dilution of a goat anti-human Fc fragment-specific IR Dye 800CW-conjugated secondary antibody (Rockland Immunochemicals) in 5% milk in PBST for 30 minutes at 25° C. with shaking. The membranes were then washed three times in PBST followed by one wash in PBS. The secondary antibody was detected and quantified using the L1-COR Odyssey infrared imaging system (L1-COR Biosciences).

[2] = molecular target: T1, linear diubiquitin (Boston Biochem); assay: phage IC50 competition ELISA with soluble linear diubiquitin
Description: An initial titer ELISA was done to determine the amount of phage at which a signal of OD₄₅₀=0.5 would be achieved. […] The coated plates were blocked with 200 μL/well of 2.5% milk in PBST for one hour at 25° C. with shaking. Twelve two-fold serial dilutions of the phage were made in 2.5% milk in PBST from OD₂₆₈=4.0 to OD₂₆₈=0.002. After one hour, the blocking buffer was dumped off of the plate and 100 μL/well of each phage dilution was added and incubated at 25° C. for 15 minutes with shaking. The plate was then washed six times with PBST using a plate washer. A 1:5000 dilution of an anti-M13 phage-HRP-conjugated secondary antibody (GE Healthcare) in PBST was used for detection of phage binding. 100 μL/well of the secondary dilution was added and the plate was incubated at 25° C. for 30 minutes with shaking. The plate was then washed 12 times with PBST using a plate washer and twice with PBS manually. Bound secondary antibody was detected using a TMB substrate (KPL) followed by quenching with an equal volume of 1 M phosphoric acid.

[3] = molecular target: T2, K48-linked diubiquitin (Boston Biochem) (human, UniProt P0CG48 1-76, isopeptide bond between the C-terminus of one ubiquitin and Lys48 of the other); assay: phage specificity ELISA, 1 ug/mL coated antigen, anti-M13-HRP
T2 construct: Bought product; also called K48 diUb
Description: (§2) The panel of ubiquitin proteins was immobilized on 96-well Maxisorb immunoplates (NUNC) (see FIGS. 7A and 7B). Plates were coated at 4° C. overnight with 1 μg/mL of each protein in 50 mM sodium carbonate buffer, pH 9.6. The coated plates were blocked with 200 μL/well of 2.5% milk in PBST for one hour at 25° C. with shaking. Six two-fold serial dilutions of phage from OD₂₆₈=1.0 to OD₂₆₈=0.03 were made in 2.5% milk in PBST. After one hour, the blocking buffer was dumped off of the plate and 100 μL of the phage serial dilutions was added. Plates were incubated at 25° C. for one hour with shaking. The plate was then washed six times with PBST using a plate washer. A 1:5,000 dilution of an anti-M13 horseradish peroxidase (HRP)-conjugated secondary antibody (GE Healthcare) in PBST was used for detection of phage binding. […] The plate was then washed six times with PBST using a plate washer and twice manually with PBS. Bound secondary antibody was detected using a TMB substrate (KPL) followed by quenching with an equal volume of 1 M phosphoric acid. The absorbance was read at 450 nm.

[4] = molecular target: T3, monoubiquitin (Boston Biochem) (human, UniProt P0CG48 1-76); assay: as above
T3 construct: Bought product
Description: as §2

[5] = molecular target: T4, K11-linked diubiquitin (Genentech) (human, UniProt P0CG48 1-76, isopeptide bond between the C-terminus of one ubiquitin and Lys11 of the other); assay: as above
T4 construct: also called K11 diUb
Description: as §2

[6] = molecular target: T1, linear diubiquitin (Boston Biochem); assay: western blot, 1 ug/mL IgG, LI-COR Odyssey quantification; Ub2 bands seen at 111 (faint), 333 and 1000 ng
Description: as §1

[7] = molecular target: T5, K63-linked diubiquitin (Boston Biochem) (human, UniProt P0CG48 1-76, isopeptide bond between the C-terminus of one ubiquitin and Lys63 of the other); assay: western blot, 1 ug/mL IgG, LI-COR Odyssey
T5 construct: Bought product; also called K63 diUb
Description: as §1

[8] = molecular target: T5, K63-linked diubiquitin (Boston Biochem); assay: western blot, 1 ug/mL IgG, LI-COR Odyssey; remark: listed apart in the source
[9] = molecular target: T1, linear diubiquitin (Boston Biochem); assay: western blot, 1 ug/mL IgG, LI-COR Odyssey quantification; Ub2 bands seen at 111 (faint), 333 and 1000 ng; remark: listed apart in the source

B1: 1E3 IgG (antibody, V domains shown)
VH: EVQLVESGGGLVQPGGSLRLSCAASGFTFSNTYISWVRQAPGKGLEWVASITPSSGSTDYADSVKGRFTISADTSKNTAYLQMNSLRAEDTAVYYCARTWLLRWVMDYWGQGTLVTVSS
VL: DIQMTQSPSSLSASVGDRVTITCRASQDVSTAVAWYQQKPGKAPKLLIYSASFLYSGVPSRFSGSGSGTDFTLTISSLQPEDFATYYCQQSYTTPPTFGQGTKVEIK
notes: also called parental 1E3
**Q.** For B1, which “signal of the Ub2 band at 1000 ng linear diUb (number under the arrow)” value (“signal of the Ub2 band” below) [1] is on record?
**A.** Its value is 8.7.

B2: 3F5, Fab displayed on phage (Fab, V domains shown)
VH: B1 VH with S57Q
VL: B1 VL
notes: Monovalent Fab on M13 phage
**Q.** What does the source list for B2?
**A.** IC50 [2]: 12 nM and 9 nM and 13 nM; binding result [3]: no binding (tested: phage OD268 1); binding result [4]: no binding (tested: phage OD268 1); binding result [5]: no binding (tested: phage OD268 1)

B3: 3F5 IgG (antibody, V domains shown)
VH: B1 VH with S57Q
VL: B1 VL
**Q.** Which results are given for B3?
**A.** signal of the Ub2 band at 1000 ng linear diUb (number under the arrow) [6]: 16.4; binding result [7]: no binding (tested: 1000 ng per lane)

B4: 2H5/3E4 double mutant, Fab displayed on phage (Fab, name in Kabat numbering, V domains shown)
VH: B1 VH with I34M
VL: B1 VL with T94N
**Q.** How did the IC50 [2] turn out when B4 was run?
**A.** Its IC50 is 26 nM.

B5: 2C11/3F5 IgG (antibody, name in Kabat numbering, V domains shown)
VH: B1 VH with S57Q
VL: B1 VL with T94Q
**Q.** What does the source list for B5?
**A.** signal of the Ub2 band at 1000 ng linear diUb (number under the arrow) [6]: 13.1; binding result [8]: no binding (tested: 1000 ng per lane)

B6: 2C11, Fab displayed on phage (Fab, name in Kabat numbering, V domains shown)
VH: B1 VH
VL: B1 VL with T94Q
notes: Light chain mutant of 1E3 (CDR L3); Monovalent Fab on M13 phage
**Q.** For B6, which IC50 [2] is on record?
**A.** The IC50 was 20 nM.

**Q.** Does B6 bind [3]?
**A.** Result: no binding (tested: phage OD268 1)

**Q.** Does B6 bind [4]?
**A.** Result: no binding (tested: phage OD268 1)

**Q.** Does B6 bind [5]?
**A.** Result: no binding (tested: phage OD268 1)

B7: 1F11/2H5/3F5 triple mutant IgG (antibody, name in Kabat numbering, V domains shown)
VH: B1 VH with S57Q
VL: B1 VL with S52K, T94N
notes: human kappa IgG1
**Q.** Does B7 bind [8]?
**A.** Result: no binding (tested: 1000 ng per lane)

B8: 2H5, Fab displayed on phage (Fab, name in Kabat numbering, V domains shown)
VH: B1 VH
VL: B1 VL with T94N
notes: as for B6
**Q.** Which IC50 [2] does the source give for B8 here?
**A.** The IC50 was 17 nM.

**Q.** Does B8 bind [3]?
**A.** Result: no binding (tested: phage OD268 1)

**Q.** Does B8 bind [4]?
**A.** Result: no binding (tested: phage OD268 1)

**Q.** Does B8 bind [5]?
**A.** Result: no binding (tested: phage OD268 1)

B9: 1F11 IgG (antibody, V domains shown)
VH: B1 VH
VL: B1 VL with S52K
**Q.** With B9 as the binder, how does the “signal of the Ub2 band” value [1] read?
**A.** The value was 13.1.

B10: 2H5/4G7 double mutant, Fab displayed on phage (Fab, name in Kabat numbering, V domains shown)
VH: B1 VH with Y108G
VL: B1 VL with T94N
**Q.** Which IC50 [2] does the source give for B10 here?
**A.** Its IC50 is 23 nM.

B11: 1F11/4G7 double mutant, Fab displayed on phage (Fab, name in Kabat numbering, V domains shown)
VH: B1 VH with Y108G
VL: B1 VL with S52K
**Q.** For B11, which IC50 [2] is on record?
**A.** The IC50 was 13 nM.

B12: 2C11/3E4 double mutant, Fab displayed on phage (Fab, name in Kabat numbering, V domains shown)
VH: B1 VH with I34M
VL: B1 VL with T94Q
**Q.** Which IC50 [2] does the source give for B12 here?
**A.** Its IC50 is 24 nM.

B13: 2H5 IgG (antibody, name in Kabat numbering, V domains shown)
VH: B1 VH
VL: B1 VL with T94N
**Q.** How did the “signal of the Ub2 band” value [1] turn out when B13 was run?
**A.** The value was 10.4.

**Q.** Does B13 bind [7]?
**A.** Result: no binding (tested: 1000 ng per lane)

B14: 1F11, Fab displayed on phage (Fab, V domains shown)
VH: B1 VH
VL: B1 VL with S52K
notes: Monovalent Fab on M13 phage
**Q.** With B14 as the binder, how does the IC50 [2] read?
**A.** Its IC50 is 14 nM.

B15: 4G7, Fab displayed on phage (Fab, name in Kabat numbering, V domains shown)
VH: B1 VH with Y108G
VL: B1 VL
notes: Heavy chain mutant of 1E3 (H3); Monovalent Fab on M13 phage
**Q.** Which results are given for B15?
**A.** IC50 [2]: 23 nM and 16 nM and 19 nM; binding result [3]: no binding (tested: phage OD268 1); binding result [4]: no binding (tested: phage OD268 1); binding result [5]: no binding (tested: phage OD268 1)

B16: 1F11/Y102L IgG (antibody, V domains shown)
VH: B1 VH with Y108L
VL: B1 VL with S52K
notes: human kappa IgG1
**Q.** B16 was tested. Which “signal of the Ub2 band” value [9] did it give?
**A.** The value was 5.3.

B17: 2C11/4G7 double mutant, Fab displayed on phage (Fab, name in Kabat numbering, V domains shown)
VH: B1 VH with Y108G
VL: B1 VL with T94Q
**Q.** Which IC50 [2] does the source give for B17 here?
**A.** The IC50 was 31 nM.

B18: Y102L IgG (antibody, V domains shown)
VH: B1 VH with Y108L
VL: B1 VL
notes: human kappa IgG1; also called Y012L
**Q.** How did the “signal of the Ub2 band” value [9] turn out when B18 was run?
**A.** The value was 5.4.

B19: 1F11/2C11/3F5 triple mutant IgG (antibody, name in Kabat numbering, V domains shown)
VH: B1 VH with S57Q
VL: B1 VL with S52K, T94Q
notes: human kappa IgG1
**Q.** Does B19 bind [8]?
**A.** Result: no binding (tested: 1000 ng per lane)

B20: 2C11 IgG (antibody, name in Kabat numbering, V domains shown)
VH: B1 VH
VL: B1 VL with T94Q
**Q.** What does the source list for B20?
**A.** signal of the Ub2 band at 1000 ng linear diUb (number under the arrow) [1]: 10.8; binding result [7]: no binding (tested: 1000 ng per lane)

B21: 1F11/3F5 IgG (antibody, V domains shown)
VH: B1 VH with S57Q
VL: B1 VL with S52K
notes: also called double mutant 1F11/3F5
**Q.** Does B21 bind [7]?
**A.** Result: no binding (tested: 1000 ng per lane)

B22: 3E4, Fab displayed on phage (Fab, name in Kabat numbering, V domains shown)
VH: B1 VH with I34M
VL: B1 VL
notes: Heavy chain mutant of 1E3 (CDR H1); Monovalent Fab on M13 phage
**Q.** With B22 as the binder, how does the IC50 [2] read?
**A.** The IC50 was 44 nM and 33 nM and 26 nM.

**Q.** Does B22 bind [3]?
**A.** Result: no binding (tested: phage OD268 1)

**Q.** Does B22 bind [4]?
**A.** Result: no binding (tested: phage OD268 1)

**Q.** Does B22 bind [5]?
**A.** Result: no binding (tested: phage OD268 1)

B23: 1F11/3E4 double mutant, Fab displayed on phage (Fab, name in Kabat numbering, V domains shown)
VH: B1 VH with I34M
VL: B1 VL with S52K
**Q.** B23 was tested. Which IC50 [2] did it give?
**A.** Its IC50 is 12 nM.

B24: 2H5/3F5 IgG (antibody, name in Kabat numbering, V domains shown)
VH: B1 VH with S57Q
VL: B1 VL with T94N
**Q.** How did the “signal of the Ub2 band” value [6] turn out when B24 was run?
**A.** Its value is 16.7.

**Q.** Does B24 bind [8]?
**A.** Result: no binding (tested: 1000 ng per lane)

From patent publication US20130058955A1 (Genentech, published 2013)
